Source: the supplement of paper PMC9112550, “Optimization of the antimicrobial peptide Bac7 by deep mutational scanning” (BMC Biology, 2022)

System: Escherichia coli TOP10
Assay: shrunken log2 fold change of peptide-encoding DNA abundance (4.5 h post-induction vs induction); higher = less antimicrobial activity (less host growth inhibition)
Details: time post-induction: 4.5 h; library: site-saturation at positions 5, 18, 19, 20
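Also: peptides expressed intracellularly from a pBAD plasmid library in pooled LB shake-flask culture, induced with 0.3% L-arabinose, DNA abundance read by NGS, three biological replicates, DESeq2 with apeglm shrinkage.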

| Sequence | shrunken log2 fold change |
| --- | --- |
| RRIRLRPPRLPRPRPRPITPPRP | 0.163 |
| RRIRIRPPRLPRPRPRPQPNPRP | -0.267 |
| RRIRGRPPRLPRPRPRPLFDPRP | 0.548 |
| RRIRPRPPRLPRPRPRPRHTPRP | 0.136 |
| RRIRARPPRLPRPRPRPQSRPRP | -0.112 |
| RRIRFRPPRLPRPRPRPEKSPRP | -0.101 |
| RRIRGRPPRLPRPRPRPWDHPRP | 0.0661 |
| RRIRKRPPRLPRPRPRPSMNPRP | -0.00473 |
| RRIRYRPPRLPRPRPRPRGHPRP | -0.117 |
| RRIRSRPPRLPRPRPRPNPRPRP | 0.0955 |
| RRIRARPPRLPRPRPRPGMSPRP | 0.649 |
| RRIRWRPPRLPRPRPRPNTGPRP | -0.096 |
| RRIRWRPPRLPRPRPRPIQTPRP | -0.0178 |
| RRIRLRPPRLPRPRPRPTKLPRP | -0.0137 |
| RRIRWRPPRLPRPRPRPDKQPRP | 0.0432 |
| RRIRLRPPRLPRPRPRPNTYPRP | -0.522 |
| RRIRNRPPRLPRPRPRPPMTPRP | 1.77 |
| RRIRERPPRLPRPRPRPPPYPRP | -0.231 |
| RRIRERPPRLPRPRPRPMQMPRP | -0.254 |
| RRIRTRPPRLPRPRPRPADHPRP | -0.0507 |
| RRIRQRPPRLPRPRPRPVDCPRP | -0.013 |
| RRIRKRPPRLPRPRPRPGMDPRP | 0.195 |
| RRIRARPPRLPRPRPRPMAWPRP | 0.662 |
| RRIRARPPRLPRPRPRPVRRPRP | 0.723 |
| RRIRLRPPRLPRPRPRPACLPRP | 0.00436 |

| Sequence | shrunken log2 fold change |
| --- | --- |
| RRIRWRPPRLPRPRPRPCQSPRP | -0.098 |
| RRIRYRPPRLPRPRPRPQGDPRP | -0.074 |
| RRIRLRPPRLPRPRPRPLPVPRP | 0.0348 |
| RRIRQRPPRLPRPRPRPQYQPRP | -1.46 |
| RRIRNRPPRLPRPRPRPVESPRP | -0.165 |
| RRIRKRPPRLPRPRPRPEELPRP | 2.77 |
| RRIRVRPPRLPRPRPRPRYPPRP | -0.294 |
| RRIRMRPPRLPRPRPRPYMNPRP | -0.737 |
| RRIRARPPRLPRPRPRPMDFPRP | 2.73 |
| RRIRTRPPRLPRPRPRPYSLPRP | -0.186 |
| RRIRKRPPRLPRPRPRPPIVPRP | -0.121 |
| RRIRWRPPRLPRPRPRPAGYPRP | 0.278 |
| RRIRDRPPRLPRPRPRPDCVPRP | 0.381 |
| RRIRSRPPRLPRPRPRPPTKPRP | 0.0856 |
| RRIRTRPPRLPRPRPRPMNAPRP | 0.194 |
| RRIRWRPPRLPRPRPRPYDLPRP | -0.021 |
| RRIRLRPPRLPRPRPRPHTKPRP | -0.422 |
| RRIRNRPPRLPRPRPRPIQPPRP | -0.213 |
| RRIRNRPPRLPRPRPRPHNAPRP | -0.175 |
| RRIRGRPPRLPRPRPRPPCGPRP | 0.554 |
| RRIRARPPRLPRPRPRPRWTPRP | 0.145 |
| RRIRTRPPRLPRPRPRPYVHPRP | -0.75 |
| RRIRPRPPRLPRPRPRPFVVPRP | -0.233 |
| RRIRYRPPRLPRPRPRPDMHPRP | -0.231 |
| RRIRARPPRLPRPRPRPVTRPRP | 0.35 |

| Sequence | shrunken log2 fold change |
| --- | --- |
| RRIRWRPPRLPRPRPRPLWWPRP | 0.927 |
| RRIRDRPPRLPRPRPRPCVWPRP | 0.321 |
| RRIRLRPPRLPRPRPRPLMWPRP | 0.115 |
| RRIRERPPRLPRPRPRPESYPRP | 0.0161 |
| RRIRFRPPRLPRPRPRPIGLPRP | -0.251 |
| RRIRTRPPRLPRPRPRPNTAPRP | -0.0235 |
| RRIRYRPPRLPRPRPRPYIQPRP | -0.294 |
| RRIRLRPPRLPRPRPRPVVQPRP | 0.0325 |
| RRIRTRPPRLPRPRPRPKPTPRP | 0.0943 |
| RRIRYRPPRLPRPRPRPKTEPRP | -0.00177 |
| RRIRARPPRLPRPRPRPVVNPRP | 0.346 |
| RRIRPRPPRLPRPRPRPHIKPRP | -0.454 |
| RRIRVRPPRLPRPRPRPRPWPRP | 0.178 |
| RRIRYRPPRLPRPRPRPPVDPRP | 0.155 |
| RRIRCRPPRLPRPRPRPFHNPRP | 2.29 |
| RRIRPRPPRLPRPRPRPVLKPRP | -0.267 |
| RRIRVRPPRLPRPRPRPTECPRP | 0.00778 |
| RRIRARPPRLPRPRPRPHHMPRP | -0.715 |
| RRIRMRPPRLPRPRPRPPSAPRP | 1.2 |
| RRIRQRPPRLPRPRPRPNPTPRP | 0.00513 |
| RRIRYRPPRLPRPRPRPMFDPRP | -1.4 |
| RRIRYRPPRLPRPRPRPVGQPRP | -0.106 |
| RRIRLRPPRLPRPRPRPNDCPRP | 0.0412 |
| RRIRCRPPRLPRPRPRPEMRPRP | 0.835 |
| RRIRGRPPRLPRPRPRPRSMPRP | 0.666 |

| Sequence | shrunken log2 fold change |
| --- | --- |
| RRIRPRPPRLPRPRPRPEWMPRP | 0.0362 |
| RRIRLRPPRLPRPRPRPQWDPRP | -0.00172 |
| RRIRSRPPRLPRPRPRPAASPRP | -0.0449 |
| RRIRRRPPRLPRPRPRPTLQPRP | 0.678 |
| RRIRLRPPRLPRPRPRPPFDPRP | 0.312 |
| RRIRRRPPRLPRPRPRPATMPRP | 0.876 |
| RRIRSRPPRLPRPRPRPMHWPRP | -0.159 |
| RRIRWRPPRLPRPRPRPFIHPRP | -0.286 |
| RRIRTRPPRLPRPRPRPETPPRP | 0.493 |
| RRIRGRPPRLPRPRPRPVTYPRP | -0.13 |
| RRIRNRPPRLPRPRPRPGNIPRP | -0.161 |
| RRIRARPPRLPRPRPRPVDHPRP | -0.0253 |
| RRIRYRPPRLPRPRPRPFMHPRP | -0.661 |
| RRIRERPPRLPRPRPRPFCAPRP | 0.548 |
| RRIRERPPRLPRPRPRPLGRPRP | -0.0894 |
| RRIRARPPRLPRPRPRPRPFPRP | 0.562 |
| RRIRGRPPRLPRPRPRPIQWPRP | 0.325 |
| RRIRRRPPRLPRPRPRPRCWPRP | 0.486 |
| RRIRWRPPRLPRPRPRPWYMPRP | -0.885 |
| RRIRERPPRLPRPRPRPTKMPRP | -0.22 |
| RRIRVRPPRLPRPRPRPVLTPRP | 0.146 |
| RRIRHRPPRLPRPRPRPALNPRP | 0.0444 |
| RRIRQRPPRLPRPRPRPYCRPRP | -0.00101 |
| RRIRFRPPRLPRPRPRPFGDPRP | -0.19 |
| RRIRTRPPRLPRPRPRPIWDPRP | -0.414 |

| Sequence | shrunken log2 fold change |
| --- | --- |
| RRIRGRPPRLPRPRPRPVALPRP | 0.639 |
| RRIRLRPPRLPRPRPRPIELPRP | 0.00435 |
| RRIRSRPPRLPRPRPRPTHGPRP | 0.28 |
| RRIRARPPRLPRPRPRPAFHPRP | -0.115 |
| RRIRKRPPRLPRPRPRPKGGPRP | 4.1 |
| RRIRGRPPRLPRPRPRPCWLPRP | -0.0298 |
| RRIRPRPPRLPRPRPRPEHQPRP | -0.0202 |
| RRIRERPPRLPRPRPRPDIFPRP | 0.0405 |
| RRIRKRPPRLPRPRPRPHMPPRP | -0.175 |
| RRIRPRPPRLPRPRPRPYSRPRP | -0.368 |
| RRIRWRPPRLPRPRPRPVEKPRP | 0.234 |
| RRIRMRPPRLPRPRPRPDGHPRP | 0.0101 |
| RRIRMRPPRLPRPRPRPFHQPRP | -0.0752 |
| RRIRKRPPRLPRPRPRPTSEPRP | 0.79 |
| RRIRQRPPRLPRPRPRPITIPRP | -0.239 |
| RRIRPRPPRLPRPRPRPVPWPRP | 0.548 |
| RRIRHRPPRLPRPRPRPQFKPRP | -0.024 |
| RRIRLRPPRLPRPRPRPFLIPRP | -0.666 |
| RRIRCRPPRLPRPRPRPDIGPRP | -0.293 |
| RRIRVRPPRLPRPRPRPTRQPRP | 0.0865 |
| RRIRERPPRLPRPRPRPHSLPRP | -0.0176 |
| RRIRYRPPRLPRPRPRPLPDPRP | -0.108 |
| RRIRLRPPRLPRPRPRPWNMPRP | -0.31 |
| RRIRPRPPRLPRPRPRPPTLPRP | 0.129 |
| RRIRPRPPRLPRPRPRPRIAPRP | 0.451 |

| Sequence | shrunken log2 fold change |
| --- | --- |
| RRIRIRPPRLPRPRPRPSWEPRP | -0.621 |
| RRIRRRPPRLPRPRPRPDVLPRP | 0.0203 |
| RRIRHRPPRLPRPRPRPKQSPRP | -0.248 |
| RRIRGRPPRLPRPRPRPADWPRP | 1.03 |
| RRIRTRPPRLPRPRPRPHDYPRP | -0.196 |
| RRIRCRPPRLPRPRPRPYTTPRP | -0.97 |
| RRIRTRPPRLPRPRPRPMNSPRP | -0.191 |
| RRIRHRPPRLPRPRPRPSGVPRP | -0.115 |
| RRIRCRPPRLPRPRPRPFGTPRP | -0.256 |
| RRIRRRPPRLPRPRPRPCAAPRP | 0.743 |
| RRIRTRPPRLPRPRPRPQWRPRP | 0.207 |
| RRIRERPPRLPRPRPRPVMRPRP | 0.453 |
| RRIRDRPPRLPRPRPRPHSIPRP | 0.0345 |
| RRIRGRPPRLPRPRPRPEKDPRP | 1.27 |
| RRIRERPPRLPRPRPRPPFIPRP | -0.299 |
| RRIRVRPPRLPRPRPRPDEYPRP | 0.0327 |
| RRIRDRPPRLPRPRPRPSYEPRP | 0.175 |
| RRIRARPPRLPRPRPRPIGMPRP | 0.0267 |
| RRIRLRPPRLPRPRPRPPNHPRP | -0.246 |
| RRIRLRPPRLPRPRPRPPTGPRP | 0.146 |
| RRIRCRPPRLPRPRPRPYTWPRP | -1.09 |
| RRIRMRPPRLPRPRPRPGMPPRP | 0.522 |
| RRIRIRPPRLPRPRPRPDQFPRP | -0.321 |
| RRIRDRPPRLPRPRPRPEFSPRP | 0.221 |
| RRIRARPPRLPRPRPRPCIVPRP | -0.233 |
